# Measurements from US20090286739A1 (FIBREX MEDICAL RESEARCH AND DEVELOPMENT, published 2009).
# Non-standard residues stand in square brackets, D forms with d. Primed or numbered codes have the meaning given here. No end group written: not given here. Haic′ = not defined here; Acdn = not defined here
# T1: vascular endothelial (VE) cadherin (human, UniProt P33151 48-784)
# T1 sequence (looked up): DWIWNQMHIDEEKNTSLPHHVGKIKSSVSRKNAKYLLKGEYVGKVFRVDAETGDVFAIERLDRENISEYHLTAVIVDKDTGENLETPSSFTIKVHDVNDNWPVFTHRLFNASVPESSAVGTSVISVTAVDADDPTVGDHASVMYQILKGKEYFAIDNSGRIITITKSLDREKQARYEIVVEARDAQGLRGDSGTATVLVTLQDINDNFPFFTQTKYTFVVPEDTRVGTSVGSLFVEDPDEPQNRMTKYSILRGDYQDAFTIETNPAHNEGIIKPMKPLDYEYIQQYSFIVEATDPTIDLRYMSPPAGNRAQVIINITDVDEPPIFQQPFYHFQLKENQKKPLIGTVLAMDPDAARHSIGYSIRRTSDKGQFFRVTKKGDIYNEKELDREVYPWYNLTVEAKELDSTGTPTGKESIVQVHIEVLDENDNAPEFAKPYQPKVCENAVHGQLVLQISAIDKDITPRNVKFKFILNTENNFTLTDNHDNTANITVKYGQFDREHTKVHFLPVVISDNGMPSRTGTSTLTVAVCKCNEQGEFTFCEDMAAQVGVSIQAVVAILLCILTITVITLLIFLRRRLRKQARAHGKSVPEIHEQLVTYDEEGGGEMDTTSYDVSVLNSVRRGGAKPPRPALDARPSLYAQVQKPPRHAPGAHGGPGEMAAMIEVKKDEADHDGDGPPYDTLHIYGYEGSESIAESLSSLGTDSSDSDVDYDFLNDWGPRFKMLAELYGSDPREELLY
# B1: Gly-His-Arg-Pro-Leu-Asp-Lys-(1S,2R)Achc-Ile-Ser-Gly-Gly-Gly-Tyr-Arg (peptide)
# peptide: GHRPLDK[(1S,2R)Achc]ISGGGYR
# modifications: not fully specified; printed as Gly-His-Arg-Pro-Leu-Asp-Lys-(1S,2R)Achc-Ile-Ser-Gly-Gly-Gly-Tyr-Arg
# B2: Gly-His-Arg-Pro-Leu-Asp-Lys-Acdn-Ile-Ser-Gly-Gly-Gly-Tyr-Arg (peptide)
# peptide: GHRPLDK[Acdn]ISGGGYR-NH2
# modifications: reading uncertain; also: printed as Gly-His-Arg-Pro-Leu-Asp-Lys-Acdn-Ile-Ser-Gly-Gly-Gly-Tyr-Arg-NH2
# Target: T1, vascular endothelial (VE) cadherin
# Assay: cell-based or functional assay
row,Binder,Relative RhoA stimulation compared to unstimulated control
1,B1,1.5 fold of unstimulated control
2,B2,1.3 fold of unstimulated control
3,GHRPLDK[cis‑4‑Acha]ISGGGYR [Gly-His-Arg-Pro-Leu-Asp-Lys-(cis-4-Acha)-Ile-Ser-Gly-Gly-Gly-Tyr-Arg],1 fold of unstimulated control
4,GHRPLDK[Haic′]ISGGGYR [Gly-His-Arg-Pro-Leu-Asp-Lys-Haic-Ile-Ser-Gly-Gly-Gly-Tyr-Arg],1.3 fold of unstimulated control
